Binding signal data for 29 molecules are collected here from PMC6555819, “Comprehensive study of nuclear receptor DNA binding provides a revised framework for understanding receptor specificity”.

The labels stand for the following.
B1: NRC3_random_hg19_14_o1 (dsDNA)
DNA 1: GCGCAGGGACTATGTGCATTAGGCCAGTTCCTCATGGCGATTGACAGCGTAGAATGAAGG
DNA 2: CCTTCATTCTACGCTGTCAATCGCCATGAGGAACTGGCCTAATGCACATAGTCCCTGCGC
B2: NRC3_random_hg19_317_o1 (dsDNA)
DNA 1: GCGCCTCCTTCTTTCCTTTGTCATCTGGTGGTGGGAGCGATTGACAGCGTAGAATGAAGG
DNA 2: CCTTCATTCTACGCTGTCAATCGCTCCCACCACCAGATGACAAAGGAAAGAAGGAGGCGC
B3: NRC3_random_hg19_270_o1 (dsDNA)
DNA 1: GCTATAGGAAGCAGGATGTTTCTTGAGAGTGTGGCCGCGATTGACAGCGTAGAATGAAGG
DNA 2: CCTTCATTCTACGCTGTCAATCGCGGCCACACTCTCAAGAAACATCCTGCTTCCTATAGC
B4: NRC3_random_hg19_31_o1 (dsDNA)
DNA 1: GCCAAGAGGACTCGCACAGTGGTGCATGGCAGCTTGGCGATTGACAGCGTAGAATGAAGG
DNA 2: CCTTCATTCTACGCTGTCAATCGCCAAGCTGCCATGCACCACTGTGCGAGTCCTCTTGGC
B5: NRC3_wobSeed138_DR5_A8G_o1 (dsDNA)
DNA 1: GCGATACGGGGTCAGCTAGAGGCCAGAGTATGGAAAGCGATTGACAGCGTAGAATGAAGG
DNA 2: CCTTCATTCTACGCTGTCAATCGCTTTCCATACTCTGGCCTCTAGCTGACCCCGTATCGC
B6: NRC3_random_hg19_20_o1 (dsDNA)
DNA 1: GCTACACTCTCCCAAGACTAAACCAGGAAGAAGTTGGCGATTGACAGCGTAGAATGAAGG
DNA 2: CCTTCATTCTACGCTGTCAATCGCCAACTTCTTCCTGGTTTAGTCTTGGGAGAGTGTAGC
B7: NRC3_wobSeed21_DR0_T12C_o1 (dsDNA)
DNA 1: GCCGTCAAAGTCCAAGGTAACGTAACAGAAAGCAGCGCGATTGACAGCGTAGAATGAAGG
DNA 2: CCTTCATTCTACGCTGTCAATCGCGCTGCTTTCTGTTACGTTACCTTGGACTTTGACGGC
B8: NRC3_wobSeed41_DR1_G17C_o1 (dsDNA)
DNA 1: GCATATGTAGGTTAAGCGTCATTCAGGTTGGTTCGCGCGATTGACAGCGTAGAATGAAGG
DNA 2: CCTTCATTCTACGCTGTCAATCGCGCGAACCAACCTGAATGACGCTTAACCTACATATGC
B9: NRC3_wobSeed87_DR3_A14G_o1 (dsDNA)
DNA 1: GCCGAACTAGGTCGTCCAGGACAGTGAATACATTGAGCGATTGACAGCGTAGAATGAAGG
DNA 2: CCTTCATTCTACGCTGTCAATCGCTCAATGTATTCACTGTCCTGGACGACCTAGTTCGGC
B10: NRC3_wobSeed87_DR3_G10C_o1 (dsDNA)
DNA 1: B9 DNA 1 with G10C, G14A
DNA 2: B9 DNA 2 with C47T, C51G
B11: NRC3_wobSeed82_DR3_G14C_o1 (dsDNA)
DNA 1: GCATCGAAAGGTCCACGAGGTGAGTATACACCGTTTGCGATTGACAGCGTAGAATGAAGG
DNA 2: CCTTCATTCTACGCTGTCAATCGCAAACGGTGTATACTCACCTCGTGGACCTTTCGATGC
B12: NRC3_wobSeed93_DR3_C13T_o1 (dsDNA)
DNA 1: GCAGTCAAAGTTTATCTAGGTAACGTAAGATATGCTGCGATTGACAGCGTAGAATGAAGG
DNA 2: CCTTCATTCTACGCTGTCAATCGCAGCATATCTTACGTTACCTAGATAAACTTTGACTGC
B13: NRC3_wobSeed15_DR0_A14G_o1 (dsDNA)
DNA 1: GCCGAACTAGGTCGAGGACAGTGAATCTCCGCACGCGCGATTGACAGCGTAGAATGAAGG
DNA 2: CCTTCATTCTACGCTGTCAATCGCGCGTGCGGAGATTCACTGTCCTCGACCTAGTTCGGC
B14: NRC3_wobSeed138_DR5_A14G_o1 (dsDNA)
DNA 1: B5 DNA 1 with G8A, A14G
DNA 2: B5 DNA 2 with T47C, C53T
B15: NRC3_wobSeed46_DR1_A16C_o1 (dsDNA)
DNA 1: GCTTACCAAGGTGAACGGTCGTTGATGCACGCCTTGGCGATTGACAGCGTAGAATGAAGG
DNA 2: CCTTCATTCTACGCTGTCAATCGCCAAGGCGTGCATCAACGACCGTTCACCTTGGTAAGC
B16: NRC3_wobSeed141_DR5_G10C_o1 (dsDNA)
DNA 1: GCAGTCAAACTTCAGGACGAGGTAACGTAAAGCACGGCGATTGACAGCGTAGAATGAAGG
DNA 2: CCTTCATTCTACGCTGTCAATCGCCGTGCTTTACGTTACCTCGTCCTGAAGTTTGACTGC
B17: NRC3_wobSeed101_DR4_A14C_o1 (dsDNA)
DNA 1: GCCCTTACGGGTCCCTCCAGGTTATAGCATCGGAGTGCGATTGACAGCGTAGAATGAAGG
DNA 2: CCTTCATTCTACGCTGTCAATCGCACTCCGATGCTATAACCTGGAGGGACCCGTAAGGGC
B18: NRC3_wobSeed39_DR1_A14T_o1 (dsDNA)
DNA 1: GCCGAACTAGGTCTAAGGACAGTGAAAGGCGACGTAGCGATTGACAGCGTAGAATGAAGG
DNA 2: CCTTCATTCTACGCTGTCAATCGCTACGTCGCCTTTCACTGTCCTTAGACCTAGTTCGGC
B19: NRC3_wobSeed45_DR1_A9C_o1 (dsDNA)
DNA 1: GCTGTCAACGTTCAAAGGTAACGTAAGTATCCACACGCGATTGACAGCGTAGAATGAAGG
DNA 2: CCTTCATTCTACGCTGTCAATCGCGTGTGGATACTTACGTTACCTTTGAACGTTGACAGC
B20: NRC3_random_hg19_313_o1 (dsDNA)
DNA 1: GCACTACATAAGTAATCATCTCCCTCTGCAACTGGGGCGATTGACAGCGTAGAATGAAGG
DNA 2: CCTTCATTCTACGCTGTCAATCGCCCCAGTTGCAGAGGGAGATGATTACTTATGTAGTGC
B21: NRC3_random_hg19_253_o1 (dsDNA)
DNA 1: GCTAGCCCTCTCAGAGGACAGAGCTAGGATAGCATGGCGATTGACAGCGTAGAATGAAGG
DNA 2: CCTTCATTCTACGCTGTCAATCGCCATGCTATCCTAGCTCTGTCCTCTGAGAGGGCTAGC
B22: NRC3_random_hg19_168_o1 (dsDNA)
DNA 1: GCACAGAAATGAAATGGGCTATAGAGCTCATCTTCTGCGATTGACAGCGTAGAATGAAGG
DNA 2: CCTTCATTCTACGCTGTCAATCGCAGAAGATGAGCTCTATAGCCCATTTCATTTCTGTGC
B23: NRC3_random_hg19_416_o1 (dsDNA)
DNA 1: GCCCTAGTTGGACCTGTGGGAAGGGCACTACTGTTCGCGATTGACAGCGTAGAATGAAGG
DNA 2: CCTTCATTCTACGCTGTCAATCGCGAACAGTAGTGCCCTTCCCACAGGTCCAACTAGGGC
B24: NRC3_random_hg19_175_o1 (dsDNA)
DNA 1: GCGAGGAAGCTAAGCACTGCAAGGAAGAGGGTCAGAGCGATTGACAGCGTAGAATGAAGG
DNA 2: CCTTCATTCTACGCTGTCAATCGCTCTGACCCTCTTCCTTGCAGTGCTTAGCTTCCTCGC
B25: NRC3_random_hg19_410_o1 (dsDNA)
DNA 1: GCTAACGAATGATCTTTCTAATGTGTTGTTGAATTCGCGATTGACAGCGTAGAATGAAGG
DNA 2: CCTTCATTCTACGCTGTCAATCGCGAATTCAACAACACATTAGAAAGATCATTCGTTAGC
B26: NRC3_random_hg19_328_o1 (dsDNA)
DNA 1: GCACTTAGAGCCCAGGAGCTTGAGGTCGCAGCTACTGCGATTGACAGCGTAGAATGAAGG
DNA 2: CCTTCATTCTACGCTGTCAATCGCAGTAGCTGCGACCTCAAGCTCCTGGGCTCTAAGTGC
B27: NRC3_random_hg19_218_o1 (dsDNA)
DNA 1: GCTTAGTCATGAAGTCTTTGCCCATGCCTGTGTCCTGCGATTGACAGCGTAGAATGAAGG
DNA 2: CCTTCATTCTACGCTGTCAATCGCAGGACACAGGCATGGGCAAAGACTTCATGACTAAGC
B28: NRC3_random_hg19_231_o1 (dsDNA)
DNA 1: GCATTACAAAGGTGCTGGAAAGGCTTGGGAGGAGCAGCGATTGACAGCGTAGAATGAAGG
DNA 2: CCTTCATTCTACGCTGTCAATCGCTGCTCCTCCCAAGCCTTTCCAGCACCTTTGTAATGC
B29: NRC3_random_hg19_51_o1 (dsDNA)
DNA 1: GCGAGAAAGCTGAACTGTCACTCTTTGCTGATGATGGCGATTGACAGCGTAGAATGAAGG
DNA 2: CCTTCATTCTACGCTGTCAATCGCCATCATCAGCAAAGAGTGACAGTTCAGCTTTCTCGC

Positions count from the first letter of the chain named.

Sequence of PPARa:RXRa (Q07869 whole entry, chain 1 of 2): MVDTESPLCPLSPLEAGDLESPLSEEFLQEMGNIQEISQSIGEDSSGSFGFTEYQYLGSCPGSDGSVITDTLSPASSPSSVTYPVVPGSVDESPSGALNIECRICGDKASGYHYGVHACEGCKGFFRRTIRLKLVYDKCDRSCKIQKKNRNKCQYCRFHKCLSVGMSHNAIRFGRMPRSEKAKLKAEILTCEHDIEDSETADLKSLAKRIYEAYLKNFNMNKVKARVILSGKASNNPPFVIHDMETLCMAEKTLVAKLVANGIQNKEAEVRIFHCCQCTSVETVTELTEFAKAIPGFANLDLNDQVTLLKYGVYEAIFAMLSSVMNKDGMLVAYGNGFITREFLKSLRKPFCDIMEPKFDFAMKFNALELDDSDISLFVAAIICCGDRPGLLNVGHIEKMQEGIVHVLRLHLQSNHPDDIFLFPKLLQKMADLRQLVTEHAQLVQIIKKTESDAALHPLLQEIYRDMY
Sequence of PPARa:RXRa (P19793 whole entry, chain 2 of 2): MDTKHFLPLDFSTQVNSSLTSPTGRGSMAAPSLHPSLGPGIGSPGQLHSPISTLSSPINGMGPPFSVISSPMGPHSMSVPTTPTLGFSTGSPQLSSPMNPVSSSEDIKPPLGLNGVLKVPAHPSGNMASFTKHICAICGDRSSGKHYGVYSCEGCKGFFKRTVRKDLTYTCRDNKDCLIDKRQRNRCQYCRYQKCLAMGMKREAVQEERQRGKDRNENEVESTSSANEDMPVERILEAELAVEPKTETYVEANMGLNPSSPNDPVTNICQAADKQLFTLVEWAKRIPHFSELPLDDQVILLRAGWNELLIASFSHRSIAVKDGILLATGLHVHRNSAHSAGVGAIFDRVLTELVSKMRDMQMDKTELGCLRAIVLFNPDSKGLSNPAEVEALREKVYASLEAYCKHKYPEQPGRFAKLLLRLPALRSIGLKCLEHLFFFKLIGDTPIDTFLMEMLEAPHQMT
Sequence of RARg:RXRa (P13631 whole entry, chain 1 of 2): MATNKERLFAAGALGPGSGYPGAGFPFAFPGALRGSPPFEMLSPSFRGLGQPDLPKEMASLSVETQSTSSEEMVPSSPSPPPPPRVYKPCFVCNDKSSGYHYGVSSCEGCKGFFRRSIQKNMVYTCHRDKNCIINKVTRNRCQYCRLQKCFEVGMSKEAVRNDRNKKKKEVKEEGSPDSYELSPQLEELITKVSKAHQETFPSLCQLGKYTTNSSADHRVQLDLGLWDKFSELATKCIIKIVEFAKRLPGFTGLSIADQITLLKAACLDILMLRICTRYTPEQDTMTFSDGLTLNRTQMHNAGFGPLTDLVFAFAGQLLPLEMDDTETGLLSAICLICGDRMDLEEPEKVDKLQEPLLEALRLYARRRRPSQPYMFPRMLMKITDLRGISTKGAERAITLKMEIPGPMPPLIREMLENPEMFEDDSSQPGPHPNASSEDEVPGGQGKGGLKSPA
Sequence of RARg:RXRa (P19793 whole entry, chain 2 of 2): as the sequence (P19793 whole entry, chain 2 of 2) above

In one data set the target is PPARa:RXRa (Homo sapiens, UniProt Q07869;P19793 full;full). Briefly: no ligand; PBM; 270 nM : 90 nM RXRa; PBS pH 7.4, 2% milk, 0.02% Triton X-100, 1 mM DTT, BSA, 0.4 mg/ml salmon testes DNA. To be noted: tags: GST kept;His cleaved; copies: 1;1; label: surface-attached array probe. The method, boiled down:
(§1)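 Each nuclear receptor dimer, without ligand, was incubated for 1 h on custom Agilent 4×180K protein-binding microarrays. Binding was detected with antibodies against each partner (one per run), and scanned fluorescence was regression-normalized. The binding z-scores are referenced to random human genomic background probes.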
In the case of B1, the binding signal was -1.96 PBM z-score against 500 random probes.

In the case of B2, the binding signal was -0.11 PBM z-score against 500 random probes.

Take B3: the binding signal is -0.83 PBM z-score against 500 random probes. The same measure, in the same setting: then B4, with -0.47 PBM z-score against 500 random probes; and B5, with 6.77 PBM z-score against 500 random probes.

Take B6: the binding signal is 0.29 PBM z-score against 500 random probes.

The target of the next data set is FXR:RXRa (Homo sapiens, UniProt Q96RI1;P19793 full;full). The data set is described as above. The note with it: tags: His kept;His cleaved; copies: 1;1; label: surface-attached array probe. The essentials: as §1
Sequence of FXR:RXRa (Q96RI1 whole entry, chain 1 of 2): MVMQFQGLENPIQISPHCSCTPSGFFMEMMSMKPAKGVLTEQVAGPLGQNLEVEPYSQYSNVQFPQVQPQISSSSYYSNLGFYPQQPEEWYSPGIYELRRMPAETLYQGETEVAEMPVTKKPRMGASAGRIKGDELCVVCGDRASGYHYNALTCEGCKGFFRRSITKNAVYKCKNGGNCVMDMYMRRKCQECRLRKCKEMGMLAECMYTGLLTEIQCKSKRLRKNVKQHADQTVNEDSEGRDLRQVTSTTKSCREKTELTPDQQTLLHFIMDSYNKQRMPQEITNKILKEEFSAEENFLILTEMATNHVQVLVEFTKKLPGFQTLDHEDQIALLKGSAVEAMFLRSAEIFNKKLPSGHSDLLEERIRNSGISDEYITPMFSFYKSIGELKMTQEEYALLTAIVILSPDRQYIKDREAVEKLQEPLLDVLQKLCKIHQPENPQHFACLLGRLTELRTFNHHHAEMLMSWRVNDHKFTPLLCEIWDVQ
Sequence of FXR:RXRa (P19793 whole entry, chain 2 of 2): as the sequence (P19793 whole entry, chain 2 of 2) above
Turning to B7, the binding signal was 0.2 PBM z-score against 500 random probes. The same measure, in the same setting: then B8, with 0.45 PBM z-score against 500 random probes. B9: the binding signal was 0.36 PBM z-score against 500 random probes.

With B10, the binding signal is 0.27 PBM z-score against 500 random probes.

B11: the binding signal is 0.48 PBM z-score against 500 random probes. For B12, the binding signal is 0.4 PBM z-score against 500 random probes.

With B13, the binding signal is 0.21 PBM z-score against 500 random probes. On the same count and under the same terms, then B14, with 0.37 PBM z-score against 500 random probes. Consider B15, for which the binding signal was 0.48 PBM z-score against 500 random probes. Same read-out and setting: with B16 the figure was 0.23 PBM z-score against 500 random probes; with B17, 0.32 PBM z-score against 500 random probes; with B18, 0.18 PBM z-score against 500 random probes.

In the case of B19, the binding signal is 0.46 PBM z-score against 500 random probes.

For a further data set, the target named is RARg:RXRa (Homo sapiens, UniProt P13631;P19793 full;full). The description is as above. The note with it: tags: His kept;His cleaved; copies: 1;1; label: surface-attached array probe. The essentials:
as §1
In the case of B20, the binding signal is 0.18 PBM z-score against 500 random probes. On the same count and under the same terms, then B21, with -0.23 PBM z-score against 500 random probes; and B1, with -0.69 PBM z-score against 500 random probes; and B22, with -0.02 PBM z-score against 500 random probes. The same measure, in the same setting: then B23, with -0.27 PBM z-score against 500 random probes. Still for that read-out and setting: then B2, with -1.07 PBM z-score against 500 random probes. On to B24, for which the binding signal was -0.07 PBM z-score against 500 random probes. Still for that read-out and setting: then B3, with -0.4 PBM z-score against 500 random probes; and B4, with -0.25 PBM z-score against 500 random probes. The same measure, in the same setting: then B5, with 7.98 PBM z-score against 500 random probes; and B25, with 0.07 PBM z-score against 500 random probes; and B6, with 0.15 PBM z-score against 500 random probes. The same measure, in the same setting: then B26, with 0.09 PBM z-score against 500 random probes; and B27, with -0.54 PBM z-score against 500 random probes. As to B28, the binding signal is -0.04 PBM z-score against 500 random probes.

With B29, the binding signal was 0.04 PBM z-score against 500 random probes.
